Data from patent publication CN114685670A (SHANGHAI LYOFIE MEDICAL SCIENCE AND TECH LIMITED COMPANY, dated 2022).

T1: human CLDN18.2 (human, UniProt P56856-2 1-261)
T1 construct: whole, on cells; also called hCLDN18.2; Claudin 18.2
T1 sequence (looked up): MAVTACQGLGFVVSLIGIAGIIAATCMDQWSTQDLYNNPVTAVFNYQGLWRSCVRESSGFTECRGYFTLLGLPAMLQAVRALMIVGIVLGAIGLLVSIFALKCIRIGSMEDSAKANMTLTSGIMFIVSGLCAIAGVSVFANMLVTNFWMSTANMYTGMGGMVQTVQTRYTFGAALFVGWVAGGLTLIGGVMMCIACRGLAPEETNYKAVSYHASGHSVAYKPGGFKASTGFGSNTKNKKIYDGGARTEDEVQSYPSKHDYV

B1: A8抗体 (as tested in Example 6) (antibody, V domains shown)
VH: QVQLQQPGAELVKPGASVKLSCKASGYTFTSYWMHWVRQRPGQGLEWIGMIHPNSGSTNYNGKFKSKATLTVDKSSSTAYMQLSSLTSEDSAVYFCARGGYYGNSLDFWGQGTSLTVSS
VL: DIVMTQSPSSLTVTAREKVTMSCKSSQSLLNSGNQKNYLTWYQQKPGQPPKLLIYWASTRESGVPDRFTGSGSGTDFTLTISSVQAEDLAVYYCQNAYSYPFTFGSGTKLEIK
B2: C18-16-1H1-1A8 (antibody, V domains shown)
VH: QVQLQQPGAELVKPGASVKLSCKASGYTFTSYWMHWVRQRPGQGLEWIGMIHPNSGSTNYNGKFKSKATLTVDKSSSTAYMQLSSLTSEDSAVYFCARGGYYGNSLDFWGQGTSLTVSS
VL: DIVMTQSPSSLTVTAREKVTMSCKSSQSLLNSGNQKNYLTWYQQKPGQPPKLLIYWASTRESGVPDRFTGSGSGTDFTLTISSVQAEDLAVYYCQNAYSYPFTFGSGTKLEIKR
notes: also called A8抗体; C18-16-1H1-1A8重组抗体

Tests used:
human CLDN18.2 [1] = target: T1, human CLDN18.2; assay: flow cytometry on 18.2-K562 cells, 8-point antibody dilution, Anti-Human IgG FITC detection
human CLDN18.2 [2] = target: T1, human CLDN18.2; assay: flow cytometry, hybridoma supernatant on CHO stable cells

Row | Binder | 抗体亲和力 (affinity from FACS titration, EC50-like) (human CLDN18.2 [1]) [µg/mL] | binding result (human CLDN18.2 [2])
1 | B1 | 0.675 | –
2 | B2 | – | binds
